Assay [1] has as its target T1, Bio-His-FIKK13 (P. falciparum, biotin (site not stated)).
T1 construct: also called His-bio-FIKK13; biotinylated FIKK13
Briefly: SPR; Bio-His-FIKK13 immobilised (Biotin CAPture kit, about 1,400 RU), Biacore S200, single-cycle kinetics, 100 s contact time, 25 °C, 50 mM Tris pH 7.5, 250 mM NaCl, 2 mM DTT, 10 mM MgCl2, 1.5 µM ADP, 0.02% Tween, 0.1% DMSO. Particulars: both partners purified.

In assay [2] the target is T2, Bio-His-FIKK13 (Plasmodium falciparum 3D7, biotin (site not stated)).
T2 construct: also called His-bio-FIKK13; PfFIKK13
Briefly: SPR; single-cycle kinetics, Biacore S200, Biotin CAPture kit; Bio-His-FIKK13 immobilised (about 1,400 RU), peptides as analytes; 50 mM Tris pH 7.5, 250 mM NaCl, 2 mM DTT, 10 mM MgCl2, 1.5 µM ADP, 0.02% Tween, 0.1% DMSO; 25 °C; 100 s contact time. Particulars: both partners purified. A general note: SPR reads the build-up and loss of mass on a sensor chip optically.

B1: FIKK13_4 (peptide)
chain: YPLRFLSKYHCG
modifications: D-tyrosine at the N-terminus; cyclised via a thioether bond between the N-terminus and the cysteine side chain; C-terminal amide
The Kd is the equilibrium constant for the complex coming apart. B1: binding with Bio-His-FIKK13 [1] was characterised by a dissociation constant (Kd) of 17 nM.

B2: FIKK13_4_S7AY10A (peptide)
chain: YPLRFLAVKAHCG
modifications: D-tyrosine at position 1; cyclised via a thioether bond between the N-terminus and the cysteine side chain; C-terminal amide
In turn, B2 registered a Kd with Bio-His-FIKK13 [2] of over 10000 nM.

Source of the values: paper PMC12137140, “The fast-evolving FIKK kinase family of Plasmodium falciparum can be inhibited by a single compound” (Nature Microbiology, 2025).
